Data set [1] concerns Gal4(1-100)-LS201 (Saccharomyces cerevisiae). Put plainly: cell_activity. To be noted: yeast JPY9:RJR227 lacZ reporter; activation dependent on Gal4 sites (p75).
Data set [2] relates to Gal4 full length (Saccharomyces cerevisiae). Put plainly: cell_activity. The settings on record: yeast lacZ reporter, 5x17mer; activation dependent on Gal4 sites stated for the peptide activators.

The results in this text go back to patent publication US20040014036.

“GAL4 consensus 17mer sites (five, reporter pRJR227)”: the activity (beta-gal units) came out at 5290 in data set [1] and 2350 in data set [2].
